Source: patent publication US20260347491

Biological target: human CD32b (FcgRIIb) (human) (UniProt P31994)
Experiment: FACS

Sequence of human CD32b (FcgRIIb) (human) (P31994 46-217): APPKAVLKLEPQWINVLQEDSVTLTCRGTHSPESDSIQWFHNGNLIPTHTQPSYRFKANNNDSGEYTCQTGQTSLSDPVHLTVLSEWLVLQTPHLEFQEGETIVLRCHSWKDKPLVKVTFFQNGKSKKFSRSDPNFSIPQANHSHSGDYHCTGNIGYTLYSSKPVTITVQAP

EC50 | Substance
1.35 nM | Pertuzumab (full)
14.1 nM | Trastuzumab (full)
